According to US20230112035A1 (AstraZeneca / MedImmune, published 2023):
Read-outs that look alike come from different tables or passages of the source.

Legend:
[1] = target: T1, recombinantly produced αvβ8 integrin protein (UniProt P06756 31-992; P26012 43-684)
T1 chain 1: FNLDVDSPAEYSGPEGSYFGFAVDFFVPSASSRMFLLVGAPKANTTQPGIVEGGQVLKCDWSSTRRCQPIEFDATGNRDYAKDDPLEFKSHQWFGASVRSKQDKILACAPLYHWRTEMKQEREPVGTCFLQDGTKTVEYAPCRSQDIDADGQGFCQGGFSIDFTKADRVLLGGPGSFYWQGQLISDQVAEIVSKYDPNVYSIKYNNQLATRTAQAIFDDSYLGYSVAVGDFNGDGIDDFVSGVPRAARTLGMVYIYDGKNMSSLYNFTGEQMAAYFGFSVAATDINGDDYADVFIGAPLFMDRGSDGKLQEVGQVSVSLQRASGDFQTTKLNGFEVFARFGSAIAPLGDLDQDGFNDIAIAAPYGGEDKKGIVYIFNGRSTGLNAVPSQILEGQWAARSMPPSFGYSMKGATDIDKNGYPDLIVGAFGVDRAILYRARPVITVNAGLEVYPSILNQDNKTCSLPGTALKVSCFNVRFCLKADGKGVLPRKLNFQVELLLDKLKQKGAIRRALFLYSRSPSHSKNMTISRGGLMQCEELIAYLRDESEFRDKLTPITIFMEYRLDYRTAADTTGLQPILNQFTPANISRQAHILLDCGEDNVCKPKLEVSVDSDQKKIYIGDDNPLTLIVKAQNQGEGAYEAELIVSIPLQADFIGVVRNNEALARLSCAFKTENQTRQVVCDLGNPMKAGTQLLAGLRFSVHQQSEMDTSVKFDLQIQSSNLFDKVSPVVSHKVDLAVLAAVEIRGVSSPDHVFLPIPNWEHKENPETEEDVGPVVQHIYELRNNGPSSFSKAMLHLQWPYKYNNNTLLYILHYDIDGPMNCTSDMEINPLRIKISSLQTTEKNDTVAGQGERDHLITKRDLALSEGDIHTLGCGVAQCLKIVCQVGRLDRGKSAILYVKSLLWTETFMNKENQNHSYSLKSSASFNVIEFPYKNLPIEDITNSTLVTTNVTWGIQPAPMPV
T1 chain 2: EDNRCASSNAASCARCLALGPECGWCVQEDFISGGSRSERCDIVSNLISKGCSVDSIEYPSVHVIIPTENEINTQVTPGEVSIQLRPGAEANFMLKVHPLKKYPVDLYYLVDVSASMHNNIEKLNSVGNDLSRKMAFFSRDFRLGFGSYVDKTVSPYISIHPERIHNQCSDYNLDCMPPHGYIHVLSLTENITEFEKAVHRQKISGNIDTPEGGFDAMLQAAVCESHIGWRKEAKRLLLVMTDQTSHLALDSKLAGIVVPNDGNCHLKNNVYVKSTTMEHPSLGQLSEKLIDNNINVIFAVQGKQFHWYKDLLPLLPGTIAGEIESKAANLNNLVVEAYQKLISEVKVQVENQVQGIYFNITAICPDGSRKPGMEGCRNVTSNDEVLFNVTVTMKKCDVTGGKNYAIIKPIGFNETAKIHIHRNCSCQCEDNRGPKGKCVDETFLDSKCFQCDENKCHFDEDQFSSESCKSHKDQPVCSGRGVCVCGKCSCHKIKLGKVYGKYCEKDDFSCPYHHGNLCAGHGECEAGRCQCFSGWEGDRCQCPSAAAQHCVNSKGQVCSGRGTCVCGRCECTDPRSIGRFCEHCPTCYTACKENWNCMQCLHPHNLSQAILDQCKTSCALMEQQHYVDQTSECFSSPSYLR

[2] = target: human αvβ8 integrin expressed on cells and in tissue (human, UniProt P06756 31-1048; P26012 43-769); assay: cell-based or functional assay
[3] = target: T1, recombinantly produced αvβ8 integrin …; assay: Biacore; value is an estimate
[4] = target: T2, recombinantly produced αvβ8 integrin protein (human, UniProt P06756 31-992; P26012 43-684); assay: ELISA screening of position 94 mutants
T2 construct: Protein coated on ELISA plates and used in Biacore; also called integrin αvβ8

[5] = target: T1, recombinantly produced αvβ8 integrin …; assay: Biacore

B1: B5-15 humanized and affinity optimized anti-αvβ8 integrin antibody (antibody, V domains shown)
VH: EVQLVESGGGLVQPGGSLRLSCAVSGFVFSRSWISWVRQAPGKGLEWIGEINPDSSTINYTSSLKDRFTISRDNAKNSLYLQMNSLRAEDTAVYYCAILITTEDYWGQGTTVTVSS
VL: DIQLTQSPSSLSASVGDRVTITCKASQDINKYLSWFQQKPGKAPKSLIYYANRLVDGVPSRFSGSGSGTDFTLTISSLQPEDFATYYCLQYDVFPYTFGGGTKVEIK
Kd [1]: 166 pM
SMAD2/3 phosphorylation in kidney lysates of humanized αvβ8 transgenic mice after UUO (ELISA) [2]: 1.6 fold

B2: hu37E1B5 anti-αvβ8 integrin antibody (UCSF humanized sequence of WO 2013/026004) (antibody, V domains shown)
VH: EVQLVESGGGLVQPGGSLRLSCAVSGFVFSRYWMSWVRQAPGKGLEWIGEINPDSSTINYTSSLKDRFTISRDNAKNSLYLQMNSLRAEDTAVYYCASLITTEDYWGQGTTVTVSS
VL: EIVLTQSPSSLSLSPGERVTITCKASQDINSYLSWYQQKPGKAPKLLIYYANRLVDGVPARFSGSGSGQDYTLTISSLEPEDFAVYYCLQYDEFPYTFGGGTKLEIK
Kd [3]: ~490000 pM

B3: MEDI-hu37E1B5-C94I mutant antibody (antibody, V domains shown)
VH: EVQLVESGGGLVQPGGSLRLSCAVSGFVFSRYWMSWVRQAPGKGLEWIGEINPDSSTINYTSSLKDRFTISRDNAKNSLYLQMNSLRAEDTAVYYCAILITTEDYWGQGTTVTVSS
VL: DIQLTQSPSSLSASVGDRVTITCKASQDINSYLSWFQQKPGKAPKSLIYYANRLVDGVPSRFSGSGSGTDFTLTISSLQPEDFATYYCLQYDEFPYTFGGGTKVEIK
notes: IgG; also called humanized anti-αvβ8 integrin antibody C94I
fold reduction in αvβ8 binding affinity (against MEDI-hu37E1B5 with Cys 94) [4]: ~3 fold

B4: Chi-37E1B5 chimeric anti-αvβ8 integrin antibody (antibody, V domains shown)
VH: EVQLVESGGGLVQPGGSLNLSCAVSGFVFSRYWMSWVRQAPGKGLEWIGEINPDSSTINYTSSLKDKFIISRDNAKNTLYLQMNKVRSEDTALYYCACLITTEDYWGQGTSVTVSS
VL: EIVLTQSPSSMYASLGERVTIPCKASQDINSYLSWFQQKPGKSPKTLIYYANRLVDGVPSRFSGSGSGQDYSLTISSLEYEDMGIYYCLQYDEFPYTFGGGTKLEIK
Kd [1]: 500 pM
Kd [5]: 500 pM
